Experimental data taken from publication PMC2837607, “Orthophosphate binding at the dimer interface of Corynebacterium callunae starch phosphorylase: mutational analysis of its role for activity and stability of the enzyme” (BMC Biochemistry, 2010).
Several values for one entry are separate records, joined by “and”; a condition that tells them apart may be missing. Equal entries are not always repeated. One block for each compound: values may come before it.

Columns and labels:
[1] = target: Corynebacterium callunae starch phosphorylase K31A (Corynebacterium callunae)
[2] = target: T1, Corynebacterium callunae starch phosphorylase (CcGlgP) (Corynebacterium callunae, UniProt Q8KQ56, K32A); experiment: colorimetric PLP quantitation of the isolated enzyme; format: binding; conditions: covalent (Schiff base with active-site Lys); as isolated
T1 construct: full-length, N-terminal RGSHHHHHHGSA tag kept, from pQE 30-GlgP in E. coli JM109; homodimer (small tetramer fraction caused by tag); PLP enzyme
T1 sequence (Q8KQ56 entry or part of it K32A): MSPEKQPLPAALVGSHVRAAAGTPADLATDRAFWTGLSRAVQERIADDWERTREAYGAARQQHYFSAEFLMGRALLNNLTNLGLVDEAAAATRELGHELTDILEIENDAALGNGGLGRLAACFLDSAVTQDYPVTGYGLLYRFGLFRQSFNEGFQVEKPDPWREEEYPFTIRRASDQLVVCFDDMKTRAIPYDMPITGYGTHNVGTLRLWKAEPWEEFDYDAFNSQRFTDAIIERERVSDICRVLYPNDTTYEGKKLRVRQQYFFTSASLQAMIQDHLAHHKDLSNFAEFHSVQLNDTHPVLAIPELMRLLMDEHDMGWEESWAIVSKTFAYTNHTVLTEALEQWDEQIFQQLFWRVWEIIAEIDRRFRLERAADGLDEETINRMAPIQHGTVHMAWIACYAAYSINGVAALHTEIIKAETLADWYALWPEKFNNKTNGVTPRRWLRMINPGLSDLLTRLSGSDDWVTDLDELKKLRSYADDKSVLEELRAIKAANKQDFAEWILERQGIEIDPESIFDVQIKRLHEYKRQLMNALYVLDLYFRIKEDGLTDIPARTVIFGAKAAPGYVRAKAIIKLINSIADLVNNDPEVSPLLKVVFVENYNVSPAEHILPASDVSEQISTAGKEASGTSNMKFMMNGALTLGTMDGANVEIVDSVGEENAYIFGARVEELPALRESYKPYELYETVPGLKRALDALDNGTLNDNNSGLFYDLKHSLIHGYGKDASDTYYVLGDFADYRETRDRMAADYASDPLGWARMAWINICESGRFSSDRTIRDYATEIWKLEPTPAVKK
From the text: (§1) colorimetric PLP quantitation of the isolated enzyme on Corynebacterium callunae starch phosphorylase (CcGlgP)

[3] = target: T2, Corynebacterium callunae starch phosphorylase (CcGlgP) (Corynebacterium callunae, UniProt Q8KQ56, R142A); experiment: as above; format: binding; conditions: covalent (Schiff base with active-site Lys); as isolated
T2 construct: full-length, N-terminal RGSHHHHHHGSA tag kept, from pQE 30-GlgP in E. coli JM109; homodimer (small tetramer fraction caused by tag); PLP enzyme
T2 sequence (Q8KQ56 entry or part of it R142A): as the sequence (Q8KQ56 entry or part of it K32A) above, with A32K, R142A counted along it
From the text: as §1

[4] = target: T3, Corynebacterium callunae starch phosphorylase (CcGlgP) (Corynebacterium callunae, UniProt Q8KQ56, S175A); experiment: as above; format: binding; conditions: covalent (Schiff base with active-site Lys); as isolated
T3 construct: full-length, N-terminal RGSHHHHHHGSA tag kept, from pQE 30-GlgP in E. coli JM109; homodimer (small tetramer fraction caused by tag); PLP enzyme
T3 sequence (Q8KQ56 entry or part of it S175A): as the sequence (Q8KQ56 entry or part of it K32A) above, with A32K, S175A counted along it
From the text: as §1

[5] = target: T4, Corynebacterium callunae starch phosphorylase (CcGlgP) (Corynebacterium callunae, UniProt Q8KQ56, T29A); experiment: as above; format: binding; conditions: covalent (Schiff base with active-site Lys); as isolated
T4 construct: full-length, N-terminal RGSHHHHHHGSA tag kept, from pQE 30-GlgP in E. coli JM109; homodimer (small tetramer fraction caused by tag); PLP enzyme
T4 sequence (Q8KQ56 entry or part of it T29A): as the sequence (Q8KQ56 entry or part of it K32A) above, with T29A, A32K counted along it
From the text: as §1

[6] = target: T5, Corynebacterium callunae starch phosphorylase (CcGlgP) (Corynebacterium callunae, UniProt Q8KQ56); experiment: as above; format: binding; set-up: full-length, N-terminal RGSHHHHHHGSA tag kept, from pQE 30-GlgP in E. coli JM109; homodimer (small tetramer fraction caused by tag); PLP enzyme; conditions: covalent (Schiff base with active-site Lys); as isolated
T5 sequence (Q8KQ56 entry or part of it): as the sequence (Q8KQ56 entry or part of it K32A) above, with A32K counted along it
From the text: as §1

[7] = target: Corynebacterium callunae starch phosphorylase S174A (Corynebacterium callunae)
[8] = target: Corynebacterium callunae starch phosphorylase S174A (Corynebacterium callunae); remark: listed apart in the source
[9] = target: Corynebacterium callunae starch phosphorylase, wild-type (Corynebacterium callunae)
[10] = target: Corynebacterium callunae starch phosphorylase, wild-type (Corynebacterium callunae); remark: listed apart in the source
[11] = target: Corynebacterium callunae starch phosphorylase, wild-type (Corynebacterium callunae); remark: listed apart in the source
[12] = target: Corynebacterium callunae starch phosphorylase T28A (Corynebacterium callunae)
[13] = target: T5, Corynebacterium callunae starch phosphorylase (CcGlgP); experiment: initial rate of glucan synthesis, Pi release; format: biochemical; set-up: full-length, N-terminal RGSHHHHHHGSA tag kept, from pQE 30-GlgP in E. coli JM109; homodimer (small tetramer fraction caused by tag); PLP enzyme; conditions: 50 mM G1P, 20 g/l starch, pH 7.0, 30 °C; apparent activation through dimer stabilisation, not allosteric
[14] = target: T5, Corynebacterium callunae starch phosphorylase (CcGlgP); conditions: 50 mM triethanolamine, pH 7.0; dimer-interface P- and CAP-sites, not the catalytic site; stabilisation against subunit dissociation
[15] = target: Corynebacterium callunae starch phosphorylase R141A (Corynebacterium callunae)
[16] = target: Corynebacterium callunae starch phosphorylase R141A (Corynebacterium callunae); experiment: SEC; R141A as isolated, prior to imidazole, 0.4 mg/ml; HiLoad 16/60 Superdex 200 prep grade, 50 mM potassium phosphate buffer pH 7.0, 0.15 M NaCl, 1 ml/min; calibrated with Bio-Rad Gel Filtration Standard

Compound: Corynebacterium callunae starch phosphorylase K31A (enzyme)
half-life time (t1/2) of enzyme activity at 45°C, pH 7.0; no Pi, 10.0 mM Pi, 100 mM Pi (5.3, 1.7 × 10^2, 3.5 × 10^3 min) [1]: 3500 min
half-life time (t1/2) of enzyme activity in 0.4 M imidazole at 30°C; no Pi, 5.0 mM Pi (10, 25 min) [1]: 25 min

Compound: Corynebacterium callunae starch phosphorylase, wild-type (enzyme)
half-life time (t1/2) of enzyme activity at 45°C, pH 7.0; no Pi, 10.0 mM Pi, 100 mM Pi (2.6, 2.8 × 10^2, 3.5 × 10^3 min) [9]: 3500 min
half-life time (t1/2) of enzyme activity in 0.4 M imidazole at 30°C; no Pi, 5.0 mM Pi (22, 160 min) [9]: 160 min
stimulation of the initial rate of glucan synthesis (Vs) by sulphate (5.0 - 40 mM (NH4)2SO4), 50 mM G1P, relative to the control lacking sulphate; maximum at around 10 mM sulphate [10]: 3 fold
apparent activation of Vs by 10 mM sulphate at 2.5 nM protein, 50 mM G1P [11]: 2.4 fold

Compound: O=S(=O)(O)O [sulphate]
maximum stimulation of Vs at around 10 mM sulphate [13]: ~ 3 fold

Compound: O=P(O)(O)O [orthophosphate]
inactivation at 45°C / 10.0 mM Pi [14]: 280 min

Further lines, results first:

PLP / [μM/μM protein] [2]: 0.6 μM/μM protein
PLP / [μM/μM protein] [3]: 0.7 μM/μM protein
PLP / [μM/μM protein] [4]: 0.7 μM/μM protein
PLP / [μM/μM protein] [5]: 0.6 μM/μM protein
PLP / [μM/μM protein] [6]: 0.7 μM/μM protein
Compound: Cc1ncc(COP(=O)(O)O)c(C=O)c1O [pyridoxal 5'-phosphate]

half-life time (t1/2) of enzyme activity at 45°C, pH 7.0; no Pi, 10.0 mM Pi, 100 mM Pi (2.8, 33, 9.9 × 10^2 min) [7]: 990 min
half-life time (t1/2) of enzyme activity in 0.4 M imidazole at 30°C; no Pi, 5.0 mM Pi (14, 58 min) [7]: 58 min
enhancement of Vs by 10 mM sulphate, 50 mM G1P; protein 2.5 nM (~5-fold) and 50 nM (1.7-fold) [8]: 5 fold
Compound: Corynebacterium callunae starch phosphorylase S174A (enzyme)

half-life time (t1/2) of enzyme activity at 45°C, pH 7.0; no Pi, 10.0 mM Pi, 100 mM Pi (0.8, 2.2, 3.3 × 10^2 min) [12]: 330 min
half-life time (t1/2) of enzyme activity in 0.4 M imidazole at 30°C; no Pi, 5.0 mM Pi (1.9, 5.6 min) [12]: 5.6 min
Compound: Corynebacterium callunae starch phosphorylase T28A (enzyme)

half-life time (t1/2) of enzyme activity at 45°C, pH 7.0; no Pi, 10.0 mM Pi, 100 mM Pi (2.9, 7.5, 1.4 × 10^3 min) [15]: 1400 min
half-life time (t1/2) of enzyme activity in 0.4 M imidazole at 30°C; no Pi, 5.0 mM Pi (6.4, 27 min) [15]: 27 min
stoichiometry N [16]: 2 and 4
Compound: Corynebacterium callunae starch phosphorylase R141A (enzyme)
